B1: recombinant human FXII with 6XHis C-terminal tag (natural protein, UniProt P00748 20-615, looked up)
chain: IPPWEAPKEHKYKAEEHTVVLTVTGEPCHFPFQYHRQLYHKCTHKGRPGPQPWCATTPNFDQDQRWGYCLEPKKVKDHCSKHSPCQKGGTCVNMPSGPHCLCPQHLTGNHCQKEKCFEPQLLRFFHKNEIWYRTEQAAVARCQCKGPDAHCQRLASQACRTNPCLHGGRCLEVEGHRLCHCPVGYTGAFCDVDTKASCYDGRGLSYRGLARTTLSGAPCQPWASEATYRNVTAEQARNWGLGGHAFCRNPDNDIRPWCFVLNRDRLSWEYCDLAQCQTPTQAAPPTPVSPRLHVPLMPAQPAPPKPQPTTRTPPQSQTPGALPAKREQPPSLTRNGPLSCGQRLRKSLSSMTRVVGGLVALRGAHPYIAALYWGHSFCAGSLIAPCWVLTAAHCLQDRPAPEDLTVVLGQERRNHSCEPCQTLAVRSYRLHEAFSPVSYQHDLALLRLQEDADGSCALLSPYVQPVCLPSGAARPSETTLCQVAGWGHQFEGAEEYASFLQEAQVPFLSLERCSAPDVHGSSILPGMLCAGFLEGGTDACQGDSGGPLVCEDQAAERRLTLQGIISWGSGCGDRNKPGVYTDVAYYLAWIREHTVS
notes: signal peptide in the construct; also called factor XII; source: CHO-K1, transfected (pCMV6-XL5), purified from cell lysate (Ni-NTA agarose); not shown: His6, C-terminal, kept

Tests used:
Conditions in all cases: both partners purified
[1] = target: B1; assay: co-IP; purified proteins: hPEPD, an hPEPD mutant or mSRC at 40 nM incubated with a coagulation factor, FXII or an FXII mutant at 0.5 μM in PBS, 100 μl, 2 h at 37°C; then a specific primary antibody at 4°C overnight, IP by protein G-agarose, IB
20I-50Pdel-FXII = target: T1, 20I-50Pdel-FXII (human, UniProt P00748 20-615, 20I-50Pdel); assay: as above
T1 construct: signal peptide in the construct; source: CHO-K1, transfected (pCMV6-XL5), purified from cell lysate (Ni-NTA agarose); not shown: His6, C-terminal, kept
T1 sequence (looked up): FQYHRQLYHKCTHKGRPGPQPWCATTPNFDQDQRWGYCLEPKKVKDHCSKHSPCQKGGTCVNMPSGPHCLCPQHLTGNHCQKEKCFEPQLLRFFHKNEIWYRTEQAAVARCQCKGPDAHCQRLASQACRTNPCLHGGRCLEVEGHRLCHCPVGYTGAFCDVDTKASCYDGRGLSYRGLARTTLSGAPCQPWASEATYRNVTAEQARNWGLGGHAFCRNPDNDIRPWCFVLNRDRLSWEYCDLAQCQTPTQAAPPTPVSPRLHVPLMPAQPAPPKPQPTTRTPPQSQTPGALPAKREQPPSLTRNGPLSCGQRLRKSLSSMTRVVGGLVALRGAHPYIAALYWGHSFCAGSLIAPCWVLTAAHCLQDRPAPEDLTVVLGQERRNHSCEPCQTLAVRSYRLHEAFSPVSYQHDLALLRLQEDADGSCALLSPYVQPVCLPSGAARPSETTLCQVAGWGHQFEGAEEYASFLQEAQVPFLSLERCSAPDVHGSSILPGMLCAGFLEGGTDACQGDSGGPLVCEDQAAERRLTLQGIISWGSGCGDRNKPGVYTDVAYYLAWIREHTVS

153T-172Rdel-FXII = target: T2, 153T-172Rdel-FXII (human, UniProt P00748 20-615, 153T-172Rdel); assay: as above
T2 construct: signal peptide in the construct; source: CHO-K1, transfected (pCMV6-XL5), purified from cell lysate (Ni-NTA agarose); not shown: His6, C-terminal, kept
T2 sequence (looked up): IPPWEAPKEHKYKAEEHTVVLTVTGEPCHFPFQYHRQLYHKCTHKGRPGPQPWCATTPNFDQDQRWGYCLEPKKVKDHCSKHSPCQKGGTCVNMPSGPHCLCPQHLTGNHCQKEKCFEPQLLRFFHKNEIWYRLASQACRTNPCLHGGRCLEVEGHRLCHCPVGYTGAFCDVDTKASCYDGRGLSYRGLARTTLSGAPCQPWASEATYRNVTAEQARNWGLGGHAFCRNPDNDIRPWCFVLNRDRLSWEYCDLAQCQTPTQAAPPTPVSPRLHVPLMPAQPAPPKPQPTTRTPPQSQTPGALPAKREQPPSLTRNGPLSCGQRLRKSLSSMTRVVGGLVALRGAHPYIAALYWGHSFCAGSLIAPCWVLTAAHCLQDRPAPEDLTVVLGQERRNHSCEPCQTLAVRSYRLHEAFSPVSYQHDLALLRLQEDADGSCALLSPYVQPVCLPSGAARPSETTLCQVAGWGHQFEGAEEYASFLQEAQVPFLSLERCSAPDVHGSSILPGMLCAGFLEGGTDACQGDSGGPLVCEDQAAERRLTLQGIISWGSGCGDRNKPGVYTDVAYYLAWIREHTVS

human amyloid β1-42 = target: T3, human amyloid β1-42 (human, UniProt P05067 672-713); assay: co-sedimentation; hAβ1-42 (200 nM) incubated with FXII or a mutant (20 nM) in PBS, 100 μl, 2 h at RT; Aβ1-42 aggregated; low-speed centrifugation; precipitates re-dissolved in 2% SDS and analysed with the supernatants by IB
T3 construct: amyloid β1-42, the peptide cut by secretases from the human Aβ precursor protein; numbers count on: the peptide; also called hAβ1-42; Aβ1-42; source: bought: Sigma-Aldrich (A9810)

| Binder | binding result [1] | binding result (20I-50Pdel-FXII) | binding result (153T-172Rdel-FXII) | binding result (human amyloid β1-42) |
| --- | --- | --- | --- | --- |
| recombinant human prolidase (peptidase D, PEPD) (enzyme, UniProt P12955 1-493, looked up, human prolidase (peptidase D); also called hPEPD; source: recombinant, generated, purified and characterized as recently reported [7, 11]; not shown: His6, C-terminal, kept) MAAATGPSFWLGNETLKVPLALFALNRQRLCERLRKNPAVQAGSIVVLQGGEETQRYCTDTGVLFRQESFFHWAFGVTEPGCYGVIDVDTGKSTLFVPRLPASHATWMGKIHSKEHFKEKYAVDDVQYVDEIASVLTSQKPSVLLTLRGVNTDSGSVCREASFDGISKFEVNNTILHPEIVECRVFKTDMELEVLRYTNKISSEAHREVMKAVKVGMKEYELESLFEHYCYSRGGMRHSSYTCICGSGENSAVLHYGHAGAPNDRTIQNGDMCLFDMGGEYYCFASDITCSFPANGKFTADQKAVYEAVLRSSRAVMGAMKPGVWWPDMHRLADRIHLEELAHMGILSGSVDAMVQAHLGAVFMPHGLGHFLGIDVHDVGGYPEGVERIDEPGLRSLRTARHLQPGMVLTVEPGIYFIDHLLDEALADPARASFLNREVLQRFRGFGGVRIEEDVVVTDSGIELLTCVPRTVEEIEACMAGCDKAFTPFSGPK | binds | binds | binds |  |
| B1 |  |  |  | binds |

From article PMC5173032, “A plasma proteolysis pathway comprising blood coagulation proteases” (Oncotarget, 2016)
